Results: US7816094B2, “Method for quantitative analysis of interactions between HIF-1alpha C-terminal peptides and CBP or p300 proteins and method of screening inhibitors using the same” (Korea Institute of Science and Technology, priority 2006, dated 2010)
Ends that are not written are not given here. * marks the point of attachment. FITC = O=C1OC2(c3ccc(O)cc3Oc3cc(O)ccc32)c2ccc(NC(=S)*)cc21; Ahx = NCCCCCC(=O)O

Legend:
[1] = biological target: T1, GST-CBP (truncated human CBP, amino acids 1-450) (Homo sapiens, UniProt Q92793); assay: Fluorescence polarization (FP)-based binding assay of fluorescein-labeled HIF-1α peptides with GST-CBP; conditions: GST-CBP 0 to 3000 nM; FIG. 2A
T1 construct: made in house; host or cells: E. coli BL21
Method: (§1) The binding affinity and features between the HIF-1α peptides and CBP or p300 proteins were analyzed by measuring the fluorescence polarization (FP) values that were changed by the formation of a protein-ligand complex through the interaction between the CBP or p300 proteins and the synthesized peptides that were manufactured by the method as described in above Example 1. The FP values were measured with a fluorescence spectrometer (Perkin-Elmer), which was set to have a slit width of 5 nm and a total integration time of 5 seconds. EBC Buffer (50 mM Tris and 120 mM NaCl; pH 8.0, 0.25% Nonidet P (NP)-40) was used for the binding reaction.
Because the cysteine-/histidine-rich 1(CH1) domain of CBP or p300 proteins that binds the C-terminal transactivation domain (C-TAD) of HIF-1α contains the Zn^2+-coordinating centers, an embodiment of the present invention first tested for the importance of Zn^2+ added in the preparation of CBP or p300 proteins by cell lysis and protein elution on their binding to the HIF-1α-derived peptides, wherein the GST-CBP or GST-p300 proteins containing the CH1 domain were prepared by cell lysis and protein elution in the presence or absence of ZnSO4. […] Then, the FP (fluorescence polarization) values were measured. […]

[2] = biological target: T2, GST-p300 (truncated p300, amino acids 1-221) (Homo sapiens, UniProt Q09472); assay: Fluorescence polarization (FP)-based binding assay of fluorescein-labeled HIF-1α peptides with GST-p300; conditions: increasing GST-p300 concentrations; FIG. 2B, 3B, 4C, 5B, 5D
T2 construct: made in house; host or cells: E. coli BL21
Method: as §1
Because the cysteine-/histidine-rich 1(CH1) domain of CBP or p300 proteins that binds the C-terminal transactivation domain (C-TAD) of HIF-1α contains the Zn^2+-coordinating centers, an embodiment of the present invention first tested for the importance of Zn^2+ added in the preparation of CBP or p300 proteins by cell lysis and protein elution on their binding to the HIF-1α-derived peptides, wherein the GST-CBP or GST-p300 proteins containing the CH1 domain were prepared by cell lysis and protein elution in the presence or absence of ZnSO4. 800 nM of CBP or p300 proteins in the EBC Buffer prepared from above Example 1 were mixed with 100 nM of F-HIF-1α(776-826, SEQ ID NO: 3) and F-HIF-1α(786-826, SEQ ID NO: 4) peptides at 25° C., respectively. Then, the FP (fluorescence polarization) values were measured.
To compare interactions between the four peptides derived from different regions in HIF-1α C-TAD with CBP or p300, these fluorescein-labeled HIF-1α peptides were mixed with CBP proteins at varying concentrations from 0 to 3000 nM under the conditions of above Example 2-2, and then the FP (fluorescence polarization) values were measured (FIG. 2A).
The dissociation constants of these two peptides were determined to be 157.3 nM for HIF-1α(776-826, SEQ ID NO: 3) and 180.1 nM for HIF-1α(786-826, SEQ ID NO: 4), respectively.

[3] = biological target: T3, GST-p300 / F-HIF-1α-(786-826, SEQ ID NO: 4) interaction (Homo sapiens, UniProt Q09472); assay: Competitive inhibition analysis of the FP-based binding assay (F-HIF-1α-p300 interaction); conditions: compared with wild-type peptide; FIG. 6
T3 construct: made in house; host or cells: E. coli BL21 for GST-p300; the tracer peptide was synthesized by Anygen
Method: To compare the importance of Thr-796, Cys-800, and Asn-803 residues in the HIF-1α peptide on its p300 binding activity, an embodiment of the present invention performed competitive inhibition analyses of the FP-based binding assays using single mutant peptides. The mutant peptides were prepared with the method as described below.
Namely, human HIF-1α-(786-826, SEQ ID NO: 4) and its single mutation products prepared by PCR were subcloned into pGEX-2T-1 (Amersham Biosciences), and overexpressed in E. coli BL21 (DE3). After the GST fusion proteins were purified using glutathione-SEPHAROSE (Amersham Biosciences), followed by GST removal with thrombin treatment, the resulting peptides were purified using reverse-phase HPLC and confirmed by MALDI-TOF mass spectrometry. The results of competitive inhibition for HIF-1α-(786-826, SEQ ID NO: 4) peptides with point mutations on the HIF-1α-p300 interaction are depicted in FIG. 6.

T2 sequence (Q09472 300-520): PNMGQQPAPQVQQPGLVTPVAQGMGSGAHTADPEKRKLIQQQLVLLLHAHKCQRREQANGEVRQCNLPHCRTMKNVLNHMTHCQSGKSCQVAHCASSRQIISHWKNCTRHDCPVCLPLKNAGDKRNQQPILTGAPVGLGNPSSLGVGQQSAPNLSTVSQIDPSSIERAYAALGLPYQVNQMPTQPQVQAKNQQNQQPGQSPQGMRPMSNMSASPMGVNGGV
T1 sequence (Q92793 1-450): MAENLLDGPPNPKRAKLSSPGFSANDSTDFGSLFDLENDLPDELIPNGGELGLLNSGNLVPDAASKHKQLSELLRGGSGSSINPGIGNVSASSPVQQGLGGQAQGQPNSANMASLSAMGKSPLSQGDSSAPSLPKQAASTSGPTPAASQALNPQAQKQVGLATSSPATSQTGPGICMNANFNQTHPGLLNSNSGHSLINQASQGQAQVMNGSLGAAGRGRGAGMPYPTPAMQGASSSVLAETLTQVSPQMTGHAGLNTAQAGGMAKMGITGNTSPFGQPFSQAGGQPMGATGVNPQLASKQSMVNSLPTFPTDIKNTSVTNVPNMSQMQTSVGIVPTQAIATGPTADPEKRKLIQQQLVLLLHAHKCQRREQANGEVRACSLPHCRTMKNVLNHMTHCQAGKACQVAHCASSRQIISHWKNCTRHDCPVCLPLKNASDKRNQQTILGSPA
T3 sequence (Q09472 300-520): as the sequence (Q09472 300-520) above

Substance | FP values (change) upon mixing with GST-CBP [1] | FP values (change) upon mixing with GST-p300 [2] | competitive inhibition of F-HIF-1α-(786-826, SEQ ID NO: 4) binding to p300 [3]
FITC-ACA-DESGLPQLTSYDCEVNAPIQGSRNLLQGEELLRAL ({FITC-Ahx}-DESGLPQLTSYDCEVNAPIQGSRNLLQGEELLRAL) [HIF-1α(788-822, SEQ ID NO: 6), fluorescein (FITC)-labeled HIF-1α C-terminal peptide, residues 788-822, aminocaproic acid linker] | increased much less than those of the above two peptides | increased much less than those of the above two peptides | 
FITC-ACA-SDLACRLLGQSMDESGLPQLTSYDCEVNAPIQGSRNLLQ ({FITC-Ahx}-SDLACRLLGQSMDESGLPQLTSYDCEVNAPIQGSRNLLQ; cysteine pairing not given here) [HIF-1α(776-814, SEQ ID NO: 5), fluorescein (FITC)-labeled HIF-1α C-terminal peptide, residues 776-814, aminocaproic acid linker] | no increase up to 3000 nM of GST-CBP | no increase upon incubation with GST-p300 | 
N803A: unlabeled HIF-1α (786-826) peptide with single mutation N803A (SMDESGLPQLTSYDCEVAAPIQGSRNLLQGEELLRALDQVN; Amino acid sequence for HIF-1a(786-826)) |  |  | to a little lesser degrees than the wild-type
S-nitrosylated F-HIF-1α (786-826, SEQ ID NO: 4): F-HIF-1α (786-826, SEQ ID NO: 4) treated with SNAP, S-nitrosylated on Cys-800, purified by reverse-phase HPLC |  | only minimal increase in FP with increasing p300 concentrations | 
T796D: unlabeled HIF-1α (786-826) peptide with single mutation T796D (SMDESGLPQLDSYDCEVNAPIQGSRNLLQGEELLRALDQVN; Amino acid sequence for HIF-1a(786-826)) |  |  | to a little lesser degrees than the wild-type
hydroxylated peptide: F-HIF-1α (786-826, SEQ ID NO: 4) hydroxylated on asparagine by recombinant His-FIH-1, purified by reverse-phase HPLC |  | only slightly increased with increasing p300 concentrations | 
peptide treated with N or H kinase fractions: F-HIF-1α (786-826, SEQ ID NO: 4) phosphorylated by normoxic or hypoxic HeLa kinase fractions, purified by reverse-phase HPLC |  | FP increase upon incubation with GST-p300, similar to the untreated peptide | 
